Patent US20220306710A1 (YEDA RESEARCH AND DEVELOPMENT, published 2022)
Where no end group is shown, it is not given here.

T1: Tau1 peptide labelled with rhodamine (human, also: rhodamine isothiocyanate label, site not given here)
T1 construct: also called Tau1R; Tau-1R
T1 peptide: GLGDRKDQGGYTMHQD

T2: Tau2 peptide labelled with rhodamine (human, also: rhodamine isothiocyanate label, site not given here)
T2 construct: also called Tau2R; Tau-2R
T2 peptide: KPGGGQVEVKSEKLDFK


How the values were obtained:
[1] = biological target: T1, Tau1 peptide labelled with rhodamine; experiment: dot blot of mixed labelled peptides on nitrocellulose
Excerpt: (§1) FIGS. 2A-B. Confirmation of APP and Tau peptide binding by visualization and ELISA. A) Visualization of APP and Tau peptide binding labelled by fluorescein (F) or rhodamine (R). Single labelled peptides were loaded on nitrocellulose membrane [upper row (F) and middle row (R)]. Mixtures were loaded (lower row) from left to right: APP1F+Tau1R, APP1F+Tau2R, APP2F+Tau1R and APP2F+Tau2R. Last sample was a control of APP2F+APP1R. […] B) Peptide inhibition of Tau and APP protein binding. An ELISA plate was coated with Tau protein overnight (ON) at 4° C. PBS, single peptides or their combinations were incubated ON at 4° C. as well. Next day, the plate was washed and blocked with PBS+3% BSA for two hours at RT. The plate was washed again with PBS. Single peptides or their combinations were added to the coated plate for four hours at RT. The plate was washed and APP protein was added to all wells for ON incubation at 4° C. The plate was then washed and anti Aß was added, to test the ability of the different peptides to affect APP protein binding to the Tau coated plate. The plate was developed with anti-mouse HRP (materials and methods section). Samples were in triplicates. Significance labelled as p≤0.05*, p≤0.008**.
(§2) All four candidate peptides were labelled with fluorescein. APP1, Tau1 and Tau2 were also labelled with rhodamine for visualization of peptide binding.

[2] = biological target: T2, Tau2 peptide labelled with rhodamine; experiment: as above
Excerpt: as §1, §2

| binding result [1] | binding result [2] | Binder |
| --- | --- | --- |
| binds | binds | HFQKAKERLEAKHRERMSQVMRE (also: fluorescein isothiocyanate label, site not given here, also called APP1F; App1F) [APP1 peptide labelled with fluorescein] |
| no binding | no binding | ATVIVITLVMLKKKQYTS (also: fluorescein isothiocyanate label, site not given here, also called APP2F) [APP2 peptide labelled with fluorescein] |
